Positions of bridges follow the written chain, without caps; N, C: chain ends. Non-standard residues stand in square brackets, D forms with d. No end group written: not given here. *: point of attachment. Acetyl(2-(4-imidazolyl)) = O=C(Cc1c[nH]cn1)*; Aib = CC(C)(N)C(=O)O
T1: human GIP receptor (human, UniProt P48546 22-466)
T1 sequence (looked up): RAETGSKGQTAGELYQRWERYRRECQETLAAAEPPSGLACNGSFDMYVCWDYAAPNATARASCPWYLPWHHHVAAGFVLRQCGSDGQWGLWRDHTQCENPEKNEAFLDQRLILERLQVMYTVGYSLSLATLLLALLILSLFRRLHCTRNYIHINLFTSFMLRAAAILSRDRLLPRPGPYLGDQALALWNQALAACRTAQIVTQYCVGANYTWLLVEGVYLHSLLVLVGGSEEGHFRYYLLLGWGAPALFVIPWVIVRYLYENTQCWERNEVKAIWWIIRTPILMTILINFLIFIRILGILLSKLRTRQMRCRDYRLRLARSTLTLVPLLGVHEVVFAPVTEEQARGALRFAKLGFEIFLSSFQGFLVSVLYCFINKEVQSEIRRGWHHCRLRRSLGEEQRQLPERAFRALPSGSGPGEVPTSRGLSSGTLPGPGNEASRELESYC

B1: triple agonist of SEQ ID NO: 96 (peptide)
peptide: Y[Aib]QGTFTSDYSKYLDEKRAKEFVQWLLDHCPSSGQPPPS
modifications: bridge 16-20; not fully specified
B2: triple agonist of SEQ ID NO: 100 (peptide)
peptide: Y[Aib]QGTFTSDYSKALDEKAAKEFVQWLLDQHPSSGQPPPSC
modifications: bridge 16-20
B3: triple agonist of SEQ ID NO: 97 (peptide)
peptide: Y[Aib]QGTFTSDYSKYLDEKRAKEFVQWLLDCHPSSGQPPPS
modifications: bridge 16-20; not fully specified
B4: triple agonist of SEQ ID NO: 12 (peptide)
peptide: {Acetyl(2-(4-imidazolyl))}-GEGTFISDLSKYMDEQAVQLFVEWLMAGGPSSGAPPPSHG
modifications: not fully specified; also: ring from underlined residues, positions not shown
B5: triple agonist of SEQ ID NO: 13 (peptide)
peptide: {Acetyl(2-(4-imidazolyl))}-GEGTFISDYSIQLDEIAVQDFVEWLLAQKPSSGAPPPSHG
modifications: not fully specified; also: ring from underlined residues, positions not shown
B6: triple agonist of SEQ ID NO: 11 (peptide)
peptide: {Acetyl(2-(4-imidazolyl))}-GEGTFTSDLSKYLDSRRQQLFVQWLKAGGPSSGAPPPSHG
modifications: not fully specified; also: ring from underlined residues, positions not shown
B7: triple agonist of SEQ ID NO: 102 (peptide)
peptide: Y[Aib]QGTFTSDYSKALDEKAAKDFVNWLLDQHPSSGQPPPSC
modifications: bridge 16-20
B8: triple agonist of SEQ ID NO: 101 (peptide)
peptide: Y[Aib]QGTFTSDYSKALDEKAAKEFVNWLLDQHPSSGQPPPSC
modifications: bridge 16-20
B9: triple agonist of SEQ ID NO: 98 (peptide)
peptide: Y[Aib]QGTFTSDYSKALDEKAAKEFVNWLLDHHPSSGQPPPSC
modifications: bridge 16-20; not fully specified
B10: triple agonist of SEQ ID NO: 99 (peptide)
peptide: Y[Aib]QGTFTSDYSKALDEKAAKDFVNWLLDHHPSSGQPPPSC
modifications: bridge 16-20; not fully specified

Molecular target: human GLP-1 receptor (human, UniProt P43220 24-463)
Assay: cell-based or functional assay

Binder	In vitro activity (%) compared with native peptide: vs GLP-1
B1	34.4%
B2	42.2%
B3	10.5%
B4	0.4%
B5	< 0.1%
B6	1.4%
B7	23.3%
B8	23.2%
B9	28.1%
B10	20.9%

Molecular target: human GCG receptor (human, UniProt P47871 26-477)
Sequence (P47871 26-477): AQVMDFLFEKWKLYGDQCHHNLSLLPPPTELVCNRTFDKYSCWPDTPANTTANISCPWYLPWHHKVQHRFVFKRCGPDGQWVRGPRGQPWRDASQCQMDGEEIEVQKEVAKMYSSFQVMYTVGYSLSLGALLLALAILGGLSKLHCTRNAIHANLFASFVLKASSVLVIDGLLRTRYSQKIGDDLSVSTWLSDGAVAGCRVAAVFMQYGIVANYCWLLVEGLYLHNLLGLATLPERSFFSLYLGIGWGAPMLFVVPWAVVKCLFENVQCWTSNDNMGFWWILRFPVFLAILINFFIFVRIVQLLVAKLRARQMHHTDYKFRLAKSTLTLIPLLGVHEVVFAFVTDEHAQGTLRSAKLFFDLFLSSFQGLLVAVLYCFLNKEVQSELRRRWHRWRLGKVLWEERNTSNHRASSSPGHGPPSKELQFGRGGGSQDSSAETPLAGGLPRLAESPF
Assay: cell-based or functional assay

Binder	In vitro activity (%) compared with native peptide: vs Glucagon
B1	195%
B2	12.7%
B3	62.8%
B4	< 0.1%
B5	< 0.1%
B6	< 0.1%
B7	29.5%
B8	13.9%
B9	8.2%
B10	14.9%

Molecular target: T1, human GIP receptor
Assay: cell-based or functional assay

Binder	In vitro activity (%) compared with native peptide: vs GIP
B1	5.2%
B2	118%
B3	2.6%
B4	< 0.1%
B5	< 0.1%
B6	< 0.1%
B7	58%
B8	40.1%
B9	47.1%
B10	57.7%

Reference: patent US20230372448A1, “THERAPEUTIC USE OF LONG-ACTING CONJUGATE OF TRIPLE AGONIST ACTING ON ALL OF GLUCAGON, GLP-1 AND GIP RECEPTORS AGAINST MULTIPLE SCLEROSIS” (HANMI PHARM. CO. ,LTD., priority 2020, published 2023)
